What all share (assay): SPOT array
The target in assay [1] is T1, Boi1 SH3 (BOI1_YEAST), P38041.
T1 chain: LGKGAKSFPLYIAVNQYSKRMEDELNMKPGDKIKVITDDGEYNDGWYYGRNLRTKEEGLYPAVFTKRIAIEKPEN

Assay [2] deals with T2, Boi2 SH3 (BOI2_YEAST), P39969.
T2 chain: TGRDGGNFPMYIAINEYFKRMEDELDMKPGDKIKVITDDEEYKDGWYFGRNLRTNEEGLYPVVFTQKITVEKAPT

In assay [3] the target is T3, Myo5 SH3 (MYO5_YEAST), Q04439.
T3 chain: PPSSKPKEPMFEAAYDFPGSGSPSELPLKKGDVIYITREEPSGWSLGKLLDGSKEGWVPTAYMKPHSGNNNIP

For assay [4], the target named is T4, Rvs167 SH3 (RV167_YEAST), P39743.
T4 chain: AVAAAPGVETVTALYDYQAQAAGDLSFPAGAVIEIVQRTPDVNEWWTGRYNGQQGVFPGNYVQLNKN

Assay [5] has as its target Sho1 SH3 (SHO1_YEAST), P40073.
Assay [6] deals with T5, Yfr024 SH3 (LSB3_YEAST), P43603.
T5 chain: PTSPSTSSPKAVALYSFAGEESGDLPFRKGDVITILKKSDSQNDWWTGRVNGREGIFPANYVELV

Assay [7] concerns the target T6, Yhr016c SH3 (YSC84_YEAST), P32793.
T6 chain: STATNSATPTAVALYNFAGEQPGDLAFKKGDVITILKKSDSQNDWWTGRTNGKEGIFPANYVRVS

Sequence of Sho1 SH3 (SHO1_YEAST), P40073 (P40073 295-366): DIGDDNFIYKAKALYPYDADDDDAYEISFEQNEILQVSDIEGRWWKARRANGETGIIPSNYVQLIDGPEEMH

B1: YFL036W 825-838 (peptide)
chain: DFRGRAYPLSPHFN
Regarding B1, the normalised SPOT signal, Boehringer light units (BLU); mean over the file's lines of this peptide in assay [1] turned out to be 5020; in assay [2], 1390; in assay [3] it was 785; in assay [4], 1830; in assay [5] it was 975; in assay [6], 1600. Also, in assay [7], the normalised SPOT signal, Boehringer light units (BLU); mean over the file's lines of this peptide was determined as 257.

B2: YOR360C 470-483 (peptide)
chain: DDIIKDHPHIPNGQ
Consider B2, for which the normalised SPOT signal, Boehringer light units (BLU); mean over the file's lines of this peptide amounted to 187 in assay [1]; 0.5 in assay [2]; 57.8 in assay [3]; 25.4 in assay [4]; 23.4 in assay [5]; 34 in assay [6]. In assay [7], this molecule gave a normalised SPOT signal, Boehringer light units (BLU); mean over the file's lines of this peptide of 74.

B3: YNL090W 103-116 (peptide)
chain: DEALRYSPDAPIVL
Regarding B3, the normalised SPOT signal, Boehringer light units (BLU); mean over the file's lines of this peptide came to 37.1 in assay [1]; 16.1 in assay [2]; 127 in assay [3]; 32.9 in assay [4]; 49.5 in assay [5]; 50.8 in assay [6]. Also, the normalised SPOT signal, Boehringer light units (BLU); mean over the file's lines of this peptide in assay [7] turned out to be 22.9.

B4: YPL084W 526-539 (peptide)
chain: DEFNRNTPPQPSLL
Consider B4, for which the normalised SPOT signal, Boehringer light units (BLU); mean over the file's lines of this peptide in assay [1] amounted to 73.9; in assay [2] it was 33.7; in assay [3] it was 118; in assay [4] it was 14.4; in assay [5], 14.3; in assay [6] it was 73.4. The same molecule had a normalised SPOT signal, Boehringer light units (BLU); mean over the file's lines of this peptide in assay [7] of 25.1.

B5: YPR173C 368-381 (peptide)
chain: DETRKLTPSSPGDD
On to B5, for which the normalised SPOT signal, Boehringer light units (BLU); mean over the file's lines of this peptide in assay [1] stood at 0; in assay [2] it was 16.6; in assay [3], 231; in assay [4] it was 52.7; in assay [5], 33.5; in assay [6], 62.3. This molecule also gave a normalised SPOT signal, Boehringer light units (BLU); mean over the file's lines of this peptide in assay [7] of 19.2.

B6: YNL132W 471-484 (peptide)
chain: DEPIRYAPGDPIEK
For B6, the normalised SPOT signal, Boehringer light units (BLU); mean over the file's lines of this peptide in assay [1] worked out at 57.2; in assay [2] it was 1; in assay [3] it was 106; in assay [4], 26.2; in assay [5] it was 54.9; in assay [6] it was 0.5. This molecule also showed a normalised SPOT signal, Boehringer light units (BLU); mean over the file's lines of this peptide in assay [7] of 9.2.

B7: YOL157C 233-246 (peptide)
chain: DENSKWQPSDPFTM
B7: the normalised SPOT signal, Boehringer light units (BLU); mean over the file's lines of this peptide amounted to 91.8 in assay [1]; 27 in assay [2]; 285 in assay [3]; 30.2 in assay [4]; 27.7 in assay [5]; 12.9 in assay [6]. In assay [7], the normalised SPOT signal, Boehringer light units (BLU); mean over the file's lines of this peptide was 10.

B8: YER164W 1276-1289 (peptide)
chain: DIGSKKLPTGPSKK
For B8, the normalised SPOT signal, Boehringer light units (BLU); mean over the file's lines of this peptide came out at 3940 in assay [1]; 34.4 in assay [2]; 220 in assay [3]; 38.1 in assay [4]; 608 in assay [5]; 50 in assay [6]. The molecule also came in with a normalised SPOT signal, Boehringer light units (BLU); mean over the file's lines of this peptide in assay [7] of 12.3.

B9: YLL006W 228-241 (peptide)
chain: DFIGRKSPDLPEYL
As for B9, the normalised SPOT signal, Boehringer light units (BLU); mean over the file's lines of this peptide in assay [1] was 137; in assay [2], 41.4; in assay [3] it was 139; in assay [4] it was 162; in assay [5] it was 17.3; in assay [6], 59.3. Further, the normalised SPOT signal, Boehringer light units (BLU); mean over the file's lines of this peptide in assay [7] is 37.2.

B10: YEL007W 26-39 (peptide)
chain: DGKLKHIPRRPYEI
With B10, the normalised SPOT signal, Boehringer light units (BLU); mean over the file's lines of this peptide came out at 1850 in assay [1]; 3.5 in assay [2]; 307 in assay [3]; 68.6 in assay [4]; 48.8 in assay [5]; 315 in assay [6]. In assay [7], this molecule had a normalised SPOT signal, Boehringer light units (BLU); mean over the file's lines of this peptide of 48.7.

B11: YLR337C 513-526 (peptide)
chain: DDNVRPSPISPSIN
For the molecule B11, the normalised SPOT signal, Boehringer light units (BLU); mean over the file's lines of this peptide in assay [1] is 19.1; in assay [2], 18.9; in assay [3] it was 153; in assay [4], 17.2; in assay [5], 23.2; in assay [6], 120. Moreover, in assay [7], the normalised SPOT signal, Boehringer light units (BLU); mean over the file's lines of this peptide worked out at 18.2.

The values above are taken from paper PMC314469, “Protein Interaction Networks by Proteome Peptide Scanning” (PLoS Biology, 2004).
